Experimental data from US5605671.

Legend:
[1] = target: Interleukin-8 receptor molecules on purified human neutrophils; experiment: saturation binding of radioligand to purified human neutrophils, analysis of binding curves
[2] = target: Interleukin-8 receptor molecules on purified human neutrophils
[3] = target: Interleukin-8 receptor molecules on purified human neutrophils; experiment: radioligand binding to purified human neutrophils, with and without 1000-fold molar excess of nonlabeled IL-8

Kd [1]: 0.83 nM
estimated maximum binding sites per cell (binding sites per cell) [1]: 60000
neutrophil chemotaxis in a Boyden chamber [2]: > 95%
specific binding as share of total binding [3]: > 90%
Substance: I-125-labeled human recombinant interleukin-8 (ligand)
